Test results reported in article PMC9671094.

Molecular target: ApexGT2 trimer (HIV-1 isolate BG505)
Assay: cryo-EM structure

B1: PCT64 35S Fab (Fab, V domains shown)
VH: EVQLVESGGGLVKPGGSLRLACVGSEFTFSEAWMTWVRQAPGKGLEWVGHMRPTTEGGAKDYAAAVRGRFTIARDDSKSTLYLQMNSLKIEDTGVYYCMTGVERGDFWSDDYSQHYNTYLIDVWGKGTTVTVSS
VL: EIVLTQSPGTLSLSPGDRATLSCRATQSVGGDYFAWYQQRPGQSPRLLIYGTSRRAAGIPDRFSGSGSGTDFTLTIDRLEPEDFAVYYCRQYETSFTFGPGTKVDIK
Work on B1 yielded a stoichiometry N (Fab per trimer) of 1.
